Columns and labels:
[1] = molecular target: N-terminal GST-tagged GlyRS (human) (UniProt P41250); test: biolayer interferometry (Octet), GlyRS immobilized
[2] = molecular target: N-terminal GST-tagged GlyRS (human) (UniProt P41250); test: biolayer interferometry (Octet), GlyRS immobilized, 30°C

N-terminal GST-tagged GlyRS (human), sequence (P41250 55-739): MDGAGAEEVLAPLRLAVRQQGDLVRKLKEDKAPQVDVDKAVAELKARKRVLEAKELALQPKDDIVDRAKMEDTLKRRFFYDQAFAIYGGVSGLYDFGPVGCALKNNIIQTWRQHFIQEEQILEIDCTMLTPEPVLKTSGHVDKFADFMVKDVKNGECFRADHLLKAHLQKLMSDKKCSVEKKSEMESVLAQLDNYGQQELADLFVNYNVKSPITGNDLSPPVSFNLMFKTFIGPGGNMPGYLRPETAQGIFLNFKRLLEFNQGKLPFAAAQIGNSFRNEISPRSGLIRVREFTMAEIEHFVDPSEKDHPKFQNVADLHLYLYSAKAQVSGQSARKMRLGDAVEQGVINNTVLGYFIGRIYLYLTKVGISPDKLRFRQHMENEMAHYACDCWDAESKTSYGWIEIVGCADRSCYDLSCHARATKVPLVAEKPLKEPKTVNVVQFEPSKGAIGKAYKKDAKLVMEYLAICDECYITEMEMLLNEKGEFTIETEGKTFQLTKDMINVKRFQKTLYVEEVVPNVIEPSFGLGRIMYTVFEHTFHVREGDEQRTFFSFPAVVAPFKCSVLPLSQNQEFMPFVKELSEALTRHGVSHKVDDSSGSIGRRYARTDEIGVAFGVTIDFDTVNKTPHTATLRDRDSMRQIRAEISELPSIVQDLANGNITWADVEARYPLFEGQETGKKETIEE

## Ubc12^N8: NEDD8-conjugated Ubc12 (C111S, stable ester linkage to His-SUMO-tagged NEDD8) (from UniProt P61081 1-183; Q15843 1-76)
[1]
  fold stronger than the Kd for NEDD8 alone: 30 fold
  fold stronger than the Kd for Ubc12 alone: 100 fold
[2]
  Kd: 4.09 nM
